Laboratory results taken from patent US20250213627A1 (BAYLOR COLLEGE OF MEDICINE, published 2025).

Key:
[1] = biological target: mKv1.3 channel stably expressed in mouse L929 fibroblasts (mouse, UniProt P16390 1-528); assay: cell-based or functional assay
[2] = biological target: Kv1.3 potassium channel (species not stated for this experiment); assay: cell-based or functional assay

Sequence of mKv1.3 channel stably expressed in mouse L929 fibroblasts (P16390 whole entry): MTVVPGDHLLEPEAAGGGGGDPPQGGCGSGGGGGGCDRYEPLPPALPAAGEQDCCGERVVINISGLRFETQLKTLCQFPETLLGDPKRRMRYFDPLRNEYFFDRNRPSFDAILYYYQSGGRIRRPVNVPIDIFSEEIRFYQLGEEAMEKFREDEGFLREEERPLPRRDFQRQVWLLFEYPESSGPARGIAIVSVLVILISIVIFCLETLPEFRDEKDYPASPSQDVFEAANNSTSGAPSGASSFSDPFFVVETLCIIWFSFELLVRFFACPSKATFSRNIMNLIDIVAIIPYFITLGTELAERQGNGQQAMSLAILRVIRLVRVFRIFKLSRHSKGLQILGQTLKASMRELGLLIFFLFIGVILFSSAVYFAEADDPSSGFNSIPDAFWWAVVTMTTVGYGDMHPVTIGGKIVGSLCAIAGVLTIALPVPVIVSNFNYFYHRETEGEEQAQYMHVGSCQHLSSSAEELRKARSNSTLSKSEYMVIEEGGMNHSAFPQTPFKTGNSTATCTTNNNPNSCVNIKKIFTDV

RSCIDTIPKSRCTAFKCKHSIKYRLSFCRKTCGTCA (3 disulfide bonds (oxidatively folded synthetic peptide)) [synthetic ShK-235]
IC50 of block of mKv1.3 currents (whole-cell patch-clamp, L929 cells) [1]: 0.0693 nM | IC50 of block of Kv1.3 channel function (whole-cell patch-clamp) [2]: 0.062 nM
